In publication PMC6218473, “Recognition of host Clr-b by the inhibitory NKR-P1B receptor provides a basis for missing-self recognition” (Nature Communications, 2018):

Legend:
[1] = target: Clr-b residues 74-194, E. coli expressed and refolded (mouse) (UniProt Q91V08); test: AUC; sedimentation velocity, Clr-b alone at higher concentrations (25–200 μM); 10 mM Tris-HCl pH 8.0, 0.15 M NaCl, 20 °C; monomer to dimer
[2] = target: Clr-b residues 74-194, E. coli expressed and refolded (mouse) (UniProt Q91V08); test: crystal structure; Clr-b and NKR-P1B^B6 mixed 1:1, 5 mg/ml; 21% PEG 3350, 0.1 M Bis/Tris pH 5.9, 5% glycerol, 0.2 M ammonium sulfate, 20 °C; 2.9 Å
[3] = target: NKp65 (Homo sapiens) (UniProt D3W0D1); conditions: cited from earlier work
[4] = target: extended Clr-b, C-terminally extended version terminating at Ser207, His-tagged (mouse) (UniProt Q91V08); test: AUC; sedimentation velocity, 120 μM each of extended Clr-b and NKR-P1B constructs, alone and in combination; 10 mM Tris-HCl pH 8.0, 0.15 M NaCl, 20 °C
[5] = target: T1, NKR-P1B (B6 allele) C-type lectin-like domain with C-terminal BirA tag and His tag, biotinylated monomer (mouse, UniProt Q99JB4 89-215, biotin on the BirA tag); test: SPR
T1 chain: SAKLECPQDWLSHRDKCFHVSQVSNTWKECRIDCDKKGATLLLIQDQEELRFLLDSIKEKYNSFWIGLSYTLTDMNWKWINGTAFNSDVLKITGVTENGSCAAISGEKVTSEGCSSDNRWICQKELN

[6] = target: the molecule itself; test: crystal structure; Clr-b and NKR-P1B^B6 mixed 1:1, 5 mg/ml; 21% PEG 3350, 0.1 M Bis/Tris pH 5.9, 5% glycerol, 0.2 M ammonium sulfate, 20 °C; 2.9 Å

Sequence of extended Clr-b, C-terminally extended version terminating at Ser207, His-tagged (mouse) (Q91V08 74-207): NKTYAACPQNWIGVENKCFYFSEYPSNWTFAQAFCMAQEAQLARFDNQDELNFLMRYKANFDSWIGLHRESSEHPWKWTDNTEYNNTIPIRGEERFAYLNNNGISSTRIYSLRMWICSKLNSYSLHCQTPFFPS
Sequence of NKp65 (Homo sapiens) (D3W0D1 whole entry): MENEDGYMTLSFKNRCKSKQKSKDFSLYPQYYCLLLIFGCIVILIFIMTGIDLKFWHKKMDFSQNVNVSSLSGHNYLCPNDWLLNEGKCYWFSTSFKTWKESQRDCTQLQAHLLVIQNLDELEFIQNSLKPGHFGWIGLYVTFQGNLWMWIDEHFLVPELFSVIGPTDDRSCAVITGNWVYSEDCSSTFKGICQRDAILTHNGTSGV

“Clr-b residues 74-194, E. coli expressed and refolded (from UniProt Q91V08 74-194) (domain or fragment)” showed a stoichiometry N [1] of 2 and a stoichiometry N [2] of 2.

In the case of KACL (from UniProt Q6UVW9), the Kd [3] is given as 0.0007 µM.

Molecule “extended NKR-P1B (B6 allele) containing the membrane proximal stalk, starting from Gln72, His-tagged (from UniProt Q99JB4 72-223) (domain or fragment)” has a fraction of total in the species of the complex [4] of 6% and a stoichiometry N (NKR-P1B per Clr-b chain) [4] of 0.5.

B1: m12, mouse cytomegalovirus-encoded decoy ligand (ligand)
chain: TNVLAAPKNTSCVKKFTVSERRPPPEPGKCMSLLGSTLVNKQAANKQVDKPVTILKIFRCPVEEYLCMNATWSGRLFVRTQDNREIIFGNISFTSTDSSPTTLTGISTLKPWPLSSDLWIHSGTGDIYMFSNASFSDPKCYITLCVLRKNAHIPVQRANFAFGVTDENLVTPTSTRTVDN
Work on B1 yielded a Kd [5] of 21.6 µM.

B2: NKR-P1B (B6 allele) C-type lectin-like domain, His-tagged (domain or fragment, mouse)
chain: SAKLECPQDWLSHRDKCFHVSQVSNTWKECRIDCDKKGATLLLIQDQEELRFLLDSIKEKYNSFWIGLSYTLTDMNWKWINGTAFNSDVLKITGVTENGSCAAISGEKVTSEGCSSDNRWICQKELN
modifications: N-acetylglucosamine on Asn169 (seen in the structure)
notes: NKR-P1B, B6 (C57BL/6) allele of Klrb1b, mouse, C-type lectin-like domain; Construct for structural and AUC experiments; also called ectodomain of NKR-P1B^B6
With B2 the stoichiometry N (NKR-P1B per Clr-b chain) [2] was 0.5 and the “stoichiometry N” value [6] was 2.
